From patent publication US20020049180 come the findings set out here.

Targets include GST-p53 (1-106) (UniProt P04637); GST-hDM2 (330-491) (UniProt Q00987); GST-Chk2(1-222) (UniProt O96017).
The target in data set [1] is GST-fusion protein containing amino acids 42-182 of KIAA0175 (UniProt Q14680).
In data set [2] the target is KIAA0175 (327-517) with serine 391 mutated to alanine (UniProt Q14680).
Data set [3] has as its target GST-fusion protein containing amino acids 327-517 of KIAA0175 (UniProt Q14680).
In data set [4] the target is GST-fusion protein containing amino acids 227-325 of KIAA0175 (UniProt Q14680).

Regarding Ataxia telangiectasia mutated (ATM), the “in vitro phosphorylation by ATM immunoprecipitates” value in the data set with GST-p53 (1-106) was “KIAA0175 (327-517) phosphorylation was comparable to that seen with several known substrates of ATM included in the same assay, GST-p53 (1-106)”; with GST-hDM2 (330-491), “KIAA0175 (327-517) phosphorylation was comparable to that seen with several known substrates of ATM included in the same assay, ... GST-hDM2 (330-491)”; in data set [1], “amino acid 42-182 (containing S100Q and S^125Q) ... were not phosphorylated”; in data set [3], “A fusion including amino acids 327-517 harboring S^391Q was a substrate for ATM”; in data set [4], “amino acids 227-325 with no SQ sites, were not phosphorylated”; with GST-Chk2(1-222) it was “KIAA0175 (327-517) phosphorylation was comparable to that seen with several known substrates of ATM included in the same assay, ... GST-Chk2(1-222)”. For the same substance, the “irradiation induced phosphorylation by ATM” value in data set [2] is “Mutation of serine 391 to alanine completely abolished the irradiation induced phosphorylation by ATM”.
